In article PMC11480506:
One block for each substance: values may come before it.

Assays:
[1] = molecular target: IRE1α LD 312TLPL315-GSGS mutant (human) (UniProt O75460); assay: AUC; sedimentation velocity (AUC-SV), 25 µM protein
[2] = molecular target: IRE1α LD 352LNYL355-GSGS mutant (human) (UniProt O75460); assay: as above
[3] = molecular target: human IRE1α lumenal domain (IRE1α LD, aa 24-443) (human) (UniProt O75460); assay: fluorescence polarisation; fluorescence anisotropy of N-terminal fluorescein labeled peptide with IRE1α LD; n = 2 independent experiments
[4] = molecular target: mCherry-IRE1α LD 312TLPL315-GSGS-10His (human) (UniProt O75460); assay: mass photometry; protein tethered by C-terminal 10His to supported lipid bilayers (99 mol% POPC, 1 mol% Ni-NTA lipids); 75 nM protein; 25 mM HEPES pH 7.3, 150 mM NaCl, 250 µM TCEP
[5] = molecular target: mCherry-IRE1α LD 312TLPL315-GSGS-10His (human) (UniProt O75460); assay: mass photometry; protein tethered by C-terminal 10His to supported lipid bilayers (99 mol% POPC, 1 mol% Ni-NTA lipids); 100 nM protein; 25 mM HEPES pH 7.3, 150 mM NaCl, 250 µM TCEP
[6] = molecular target: mCherry-IRE1α LD 352LNYL355-GSGS-10His (human) (UniProt O75460); assay: mass photometry; protein tethered by C-terminal 10His to supported lipid bilayers (99 mol% POPC, 1 mol% Ni-NTA lipids); 75 nM protein; 25 mM HEPES pH 7.3, 150 mM NaCl, 250 µM TCEP
[7] = molecular target: mCherry-IRE1α LD 352LNYL355-GSGS-10His (human) (UniProt O75460); assay: mass photometry; protein tethered by C-terminal 10His to supported lipid bilayers (99 mol% POPC, 1 mol% Ni-NTA lipids); 100 nM protein; 25 mM HEPES pH 7.3, 150 mM NaCl, 250 µM TCEP
[8] = molecular target: mCherry-IRE1α LD-10His (human) (UniProt O75460); assay: mass photometry; protein tethered by C-terminal 10His to supported lipid bilayers (99 mol% POPC, 1 mol% Ni-NTA lipids); 75 nM protein; 25 mM HEPES pH 7.3, 150 mM NaCl, 250 µM TCEP
[9] = molecular target: mCherry-IRE1α LD-10His (human) (UniProt O75460); assay: mass photometry; protein tethered by C-terminal 10His to supported lipid bilayers (99 mol% POPC, 1 mol% Ni-NTA lipids); 100 nM protein; 25 mM HEPES pH 7.3, 150 mM NaCl, 250 µM TCEP

UniProt O75460, sequence (O75460 24-443): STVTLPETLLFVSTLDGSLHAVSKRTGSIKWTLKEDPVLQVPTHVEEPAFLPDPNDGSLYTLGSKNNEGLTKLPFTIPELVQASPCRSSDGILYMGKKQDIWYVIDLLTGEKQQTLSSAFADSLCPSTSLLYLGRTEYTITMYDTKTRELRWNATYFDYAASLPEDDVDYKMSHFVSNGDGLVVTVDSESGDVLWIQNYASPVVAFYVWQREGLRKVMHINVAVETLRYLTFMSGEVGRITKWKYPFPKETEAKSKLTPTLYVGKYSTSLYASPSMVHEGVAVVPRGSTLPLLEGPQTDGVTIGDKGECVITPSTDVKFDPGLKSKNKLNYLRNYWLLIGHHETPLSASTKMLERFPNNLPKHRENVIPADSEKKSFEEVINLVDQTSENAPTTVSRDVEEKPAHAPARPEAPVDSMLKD

stoichiometry N [1]: 2
Substance: IRE1α LD 312TLPL315-GSGS mutant (from UniProt O75460 24-443) (domain or fragment)

stoichiometry N [2]: 2
Substance: IRE1α LD 352LNYL355-GSGS mutant (from UniProt O75460 24-443) (domain or fragment)

Kd [3]: 2000 nM
Substance: MPZ1N-2X, model unfolded polypeptide (two MPZ1N 12mers in tandem), N-terminal fluorescein labeled

stoichiometry N [4]: 2 | stoichiometry N [5]: 2
Substance: mCherry-IRE1α LD 312TLPL315-GSGS-10His (from UniProt O75460 24-443) (domain or fragment)

stoichiometry N [6]: 2 | stoichiometry N [7]: 2
Substance: mCherry-IRE1α LD 352LNYL355-GSGS-10His (from UniProt O75460 24-443) (domain or fragment)

Substance: mCherry-IRE1α LD-10His (from UniProt O75460 24-443) (domain or fragment)
stoichiometry N [8]: 2 | stoichiometry N [9]: 2
